Results on three variants are retold here after IntAct's records for PubMed 32296183.

B1: Succinate--CoA ligase [ADP-forming] subunit beta, mitochondrial (Homo sapiens), Q9P2R7 (parent)
chain: MAASMFYGRLVAVATLRNHRPRTAQRAAAQVLGSSGLFNNHGLQVQQQQQRNLSLHEYMSMELLQEAGVSVPKGYVAKSPDEAYAIAKKLGSKDVVIKAQVLAGGRGKGTFESGLKGGVKIVFSPEEAKAVSSQMIGKKLFTKQTGEKGRICNQVLVCERKYPRREYYFAITMERSFQGPVLIGSSHGGVNIEDVAAESPEAIIKEPIDIEEGIKKEQALQLAQKMGFPPNIVESAAENMVKLYSLFLKYDATMIEINPMVEDSDGAVLCMDAKINFDSNSAYRQKKIFDLQDWTQEDERDKDAAKANLNYIGLDGNIGCLVNGAGLAMATMDIIKLHGGTPANFLDVGGGATVHQVTEAFKLITSDKKVLAILVNIFGGIMRCDVIAQGIVMAVKDLEIKIPVVVRLQGTRVDDAKALIADSGLKILACDDLDEAARMVVKLSEIVTLAKQAHVDVKFQLPI
B2: Catenin alpha-3 (Homo sapiens), Q9UI47-2 (parent)
chain: MSAETPITLNIDPQDLQVQTFTVEKLLEPLIIQVTTLVNCPQNPSSRKKGRSKRASVLLASVEEATWNLLDKGEKIAQEATVLKDELTASLEEVRKESEALKVSAERFTDDPCFLPKREAVVQAARALLAAVTRLLILADMIDVMCLLQHVSAFQRTFESLKNVANKSDLQKTYQKLGKELENLDYLAFKRQQDLKSPNQRDEIAGARASLKENSPLLHSICSACLEHSDVASLKASKDTVCEEIQNALNVISNASQGIQNMTTPPEPQAATLGSALDELENLIVLNPLTVTEEEIRPSLEKRLEAIISGAALLADSSCTRDLHRERIIAECNAIRQALQDLLSEYMNNAGKKERSNTLNIALDNMCKKTRDLRRQLRKAIIDHVSDSFLDTTVPLLVLIEAAKNGREKEIKEYAAIFHEHTSRLVEVANLACSMSTNEDGIKIVKIAANHLETLCPQIINAALALAARPKSQAVKNTMEMYKRTWENHIHVLTEAVDDITSIDDFLAVSGMFLFF
partner: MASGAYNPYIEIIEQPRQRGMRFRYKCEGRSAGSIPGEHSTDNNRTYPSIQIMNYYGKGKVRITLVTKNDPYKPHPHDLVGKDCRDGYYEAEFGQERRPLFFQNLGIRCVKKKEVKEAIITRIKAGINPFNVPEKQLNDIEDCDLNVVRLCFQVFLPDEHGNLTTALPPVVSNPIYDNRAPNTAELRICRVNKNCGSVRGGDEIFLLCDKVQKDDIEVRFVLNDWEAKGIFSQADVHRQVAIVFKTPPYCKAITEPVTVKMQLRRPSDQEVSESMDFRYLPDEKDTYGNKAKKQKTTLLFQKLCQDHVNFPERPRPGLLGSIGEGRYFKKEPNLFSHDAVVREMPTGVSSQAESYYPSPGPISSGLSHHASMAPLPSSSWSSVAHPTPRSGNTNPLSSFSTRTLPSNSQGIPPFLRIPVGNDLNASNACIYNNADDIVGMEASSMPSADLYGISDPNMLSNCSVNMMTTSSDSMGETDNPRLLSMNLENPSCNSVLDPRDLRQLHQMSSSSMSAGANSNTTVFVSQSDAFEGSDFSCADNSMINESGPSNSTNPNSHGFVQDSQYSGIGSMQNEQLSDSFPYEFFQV

One experiment covers variants of B1. Particulars: with sc23a_human SEC23A.
Turning to MAASMFYGRLVAVATLRNHRPRTAQRAAAQVLGSSGLFNNHGLQVQQQQQRNLSLHEYMSMELLQEAGVSVPKGYVAKSPDEAYAIAKKLGSKDVVIKAQVLAGGRGKGTFESGLKGRVKIVFSPEEAKAVSSQMIGKKLFTKQTGEKGRICNQVLVCERKYPRREYYFAITMERSFQGPVLIGSSHGGVNIEDVAAESPEAIIKEPIDIEEGIKKEQALQLAQKMGFPPNIVESAAENMVKLYSLFLKYDATMIEINPMVEDSDGAVLCMDAKINFDSNSAYRQKKIFDLQDWTQEDERDKDAAKANLNYIGLDGNIGCLVNGAGLAMATMDIIKLHGGTPANFLDVGGGATVHQVTEAFKLITSDKKVLAILVNIFGGIMRCDVIAQGIVMAVKDLEIKIPVVVRLQGTRVDDAKALIADSGLKILACDDLDEAARMVVKLSEIVTLAKQAHVDVKFQLPI [G118R], the “effect of a mutation on the interaction” value is “disrupting interaction strength”.
With MAASMFYGRLVAVATLRNHRPRTAQRAAAQVLGSSGLFNNHGLQVQQQQQRNLSLHEYMSMELLQEAGVSVPKGYVAKSPDEAYAIAKKLGSKDVVIKAQVLAGGRGKGTFESGLKGGVKIVFSPEEAKAVSSQMIGKKLFTKQTGEKGRICNQVLVCERKYPRREYYFAITMERSFQGPVLIGSSHGGVNIEDVAAESPEAIIKEPIDIEEGIKKEQALQLAQKMGFPPNIVESAAENMVKLYSLFLKYNATMIEINPMVEDSDGAVLCMDAKINFDSNSAYRQKKIFDLQDWTQEDERDKDAAKANLNYIGLDGNIGCLVNGAGLAMATMDIIKLHGGTPANFLDVGGGATVHQVTEAFKLITSDKKVLAILVNIFGGIMRCDVIAQGIVMAVKDLEIKIPVVVRLQGTRVDDAKALIADSGLKILACDDLDEAARMVVKLSEIVTLAKQAHVDVKFQLPI [D251N], the “effect of a mutation on the interaction” value is given as “disrupting interaction strength”.

In another experiment the parent is B1. The following applies: with mal2_human MAL2, Q969L2.
Chain of mal2_human MAL2, Q969L2 (Q969L2 whole entry): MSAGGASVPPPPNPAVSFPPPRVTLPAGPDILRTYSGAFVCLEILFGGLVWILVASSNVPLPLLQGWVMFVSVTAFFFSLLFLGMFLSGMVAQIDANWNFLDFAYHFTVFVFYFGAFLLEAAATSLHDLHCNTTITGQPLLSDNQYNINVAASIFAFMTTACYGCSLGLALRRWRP
As for MAASMFYGRLVAVATLRNHRPRTAQRAAAQVLGSSGLFNNHGLQVQQQQQRNLSLHEYMSMELLQEAGVSVPKGYVAKSPDEAYAIAKKLGSKDVVIKAQVLAGGRGKGTFESGLKGRVKIVFSPEEAKAVSSQMIGKKLFTKQTGEKGRICNQVLVCERKYPRREYYFAITMERSFQGPVLIGSSHGGVNIEDVAAESPEAIIKEPIDIEEGIKKEQALQLAQKMGFPPNIVESAAENMVKLYSLFLKYDATMIEINPMVEDSDGAVLCMDAKINFDSNSAYRQKKIFDLQDWTQEDERDKDAAKANLNYIGLDGNIGCLVNGAGLAMATMDIIKLHGGTPANFLDVGGGATVHQVTEAFKLITSDKKVLAILVNIFGGIMRCDVIAQGIVMAVKDLEIKIPVVVRLQGTRVDDAKALIADSGLKILACDDLDEAARMVVKLSEIVTLAKQAHVDVKFQLPI [G118R], the “effect of a mutation on the interaction” value is listed as “disrupting interaction strength”.
The same measure, in the same setting: for MAASMFYGRLVAVATLRNHRPRTAQRAAAQVLGSSGLFNNHGLQVQQQQQRNLSLHEYMSMELLQEAGVSVPKGYVAKSPDEAYAIAKKLGSKDVVIKAQVLAGGRGKGTFESGLKGGVKIVFSPEEAKAVSSQMIGKKLFTKQTGEKGRICNQVLVCERKYPRREYYFAITMERSFQGPVLIGSSHGGVNIEDVAAESPEAIIKEPIDIEEGIKKEQALQLAQKMGFPPNIVESAAENMVKLYSLFLKYNATMIEINPMVEDSDGAVLCMDAKINFDSNSAYRQKKIFDLQDWTQEDERDKDAAKANLNYIGLDGNIGCLVNGAGLAMATMDIIKLHGGTPANFLDVGGGATVHQVTEAFKLITSDKKVLAILVNIFGGIMRCDVIAQGIVMAVKDLEIKIPVVVRLQGTRVDDAKALIADSGLKILACDDLDEAARMVVKLSEIVTLAKQAHVDVKFQLPI [D251N] the value was “disrupting interaction strength”.

Variants of B1 are the subject of a further experiment. Particulars: with ar6p1_human ARL6IP1, Q15041.
Chain of ar6p1_human ARL6IP1, Q15041 (Q15041 whole entry): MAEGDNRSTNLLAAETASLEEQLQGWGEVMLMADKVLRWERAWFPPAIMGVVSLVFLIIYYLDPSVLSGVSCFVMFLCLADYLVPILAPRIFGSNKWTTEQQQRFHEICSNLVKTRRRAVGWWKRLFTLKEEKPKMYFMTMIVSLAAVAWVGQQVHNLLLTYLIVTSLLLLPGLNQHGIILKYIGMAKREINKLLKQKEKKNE
Regarding MAASMFYGRLVAVATLRNHRPRTAQRAAAQVLGSSGLFNNHGLQVQQQQQRNLSLHEYMSMELLQEAGVSVPKGYVAKSPDEAYAIAKKLGSKDVVIKAQVLAGGRGKGTFESGLKGRVKIVFSPEEAKAVSSQMIGKKLFTKQTGEKGRICNQVLVCERKYPRREYYFAITMERSFQGPVLIGSSHGGVNIEDVAAESPEAIIKEPIDIEEGIKKEQALQLAQKMGFPPNIVESAAENMVKLYSLFLKYDATMIEINPMVEDSDGAVLCMDAKINFDSNSAYRQKKIFDLQDWTQEDERDKDAAKANLNYIGLDGNIGCLVNGAGLAMATMDIIKLHGGTPANFLDVGGGATVHQVTEAFKLITSDKKVLAILVNIFGGIMRCDVIAQGIVMAVKDLEIKIPVVVRLQGTRVDDAKALIADSGLKILACDDLDEAARMVVKLSEIVTLAKQAHVDVKFQLPI [G118R], the “effect of a mutation on the interaction” value is “disrupting interaction strength”.
Take MAASMFYGRLVAVATLRNHRPRTAQRAAAQVLGSSGLFNNHGLQVQQQQQRNLSLHEYMSMELLQEAGVSVPKGYVAKSPDEAYAIAKKLGSKDVVIKAQVLAGGRGKGTFESGLKGGVKIVFSPEEAKAVSSQMIGKKLFTKQTGEKGRICNQVLVCERKYPRREYYFAITMERSFQGPVLIGSSHGGVNIEDVAAESPEAIIKEPIDIEEGIKKEQALQLAQKMGFPPNIVESAAENMVKLYSLFLKYNATMIEINPMVEDSDGAVLCMDAKINFDSNSAYRQKKIFDLQDWTQEDERDKDAAKANLNYIGLDGNIGCLVNGAGLAMATMDIIKLHGGTPANFLDVGGGATVHQVTEAFKLITSDKKVLAILVNIFGGIMRCDVIAQGIVMAVKDLEIKIPVVVRLQGTRVDDAKALIADSGLKILACDDLDEAARMVVKLSEIVTLAKQAHVDVKFQLPI [D251N]: the “effect of a mutation on the interaction” value was “disrupting interaction strength”.

Variants of B2 are the subject of a further experiment. Particulars: with REL.
Consider MSAETPITLNIDPQDLQVQTFTVEKLLEPLIIQVTTLVNCPQNPSSRKKGRSKRASVLLASVEEATWNLLDKGEKIAQEATVLKDELTASLEEDRKESEALKVSAERFTDDPCFLPKREAVVQAARALLAAVTRLLILADMIDVMCLLQHVSAFQRTFESLKNVANKSDLQKTYQKLGKELENLDYLAFKRQQDLKSPNQRDEIAGARASLKENSPLLHSICSACLEHSDVASLKASKDTVCEEIQNALNVISNASQGIQNMTTPPEPQAATLGSALDELENLIVLNPLTVTEEEIRPSLEKRLEAIISGAALLADSSCTRDLHRERIIAECNAIRQALQDLLSEYMNNAGKKERSNTLNIALDNMCKKTRDLRRQLRKAIIDHVSDSFLDTTVPLLVLIEAAKNGREKEIKEYAAIFHEHTSRLVEVANLACSMSTNEDGIKIVKIAANHLETLCPQIINAALALAARPKSQAVKNTMEMYKRTWENHIHVLTEAVDDITSIDDFLAVSGMFLFF [V94D], for which the “effect of a mutation on the interaction” value was “with no effect”.
